How the values were obtained:
[1] = tested on: 1,557 peptides that contain no tyrosine residues (3,243-plex peptide construct set)
[2] = tested on: T1, peptide construct comprising the Abl substrate GEAIYAAPFA (SEQ ID NO:13) with C-terminal FLAG tag
T1 sequence: GEAIYAAPFADYKDDDDK

[3] = tested on: peptide construct with HCV polyprotein 8-mer EAIYQCCD (SEQ ID NO:12)
[4] = tested on: peptide construct with HCV polyprotein 8-mer EVVTSTWV (SEQ ID NO:11)
[5] = tested on: peptide construct with HCV polyprotein 8-mer MEECSQHL (SEQ ID NO:8)
[6] = tested on: peptide construct with HCV polyprotein 8-mer TTPCSGSW (SEQ ID NO:9)
[7] = tested on: peptide construct with HCV polyprotein 8-mer VVCCSMSY (SEQ ID NO:10)
[8] = tested on: T2, peptide construct with Cortactin 10-mer GHYPAEDSTY (SEQ ID NO:17)
T2 sequence: GHYPAEDSTY

[9] = tested on: T3, peptide construct with Cortactin 10-mer GLAYATEAVY (SEQ ID NO:16)
T3 sequence: GLAYATEAVY

[10] = tested on: T4, peptide construct with Cortactin 10-mer GTEPEPVYSM (SEQ ID NO:18)
T4 sequence: GTEPEPVYSM

[11] = tested on: T5, peptide construct with Cortactin 10-mer QVSSAYQKTV (SEQ ID NO:20)
T5 sequence: QVSSAYQKTV

[12] = tested on: T6, peptide construct with Cortactin 10-mer VYSMEAADYR (SEQ ID NO:19)
T6 sequence: VYSMEAADYR

[13] = tested on: T7, peptide construct comprising the enterokinase substrate AGDDDDKAG (SEQ ID NO:2)
T7 sequence: CAAGDDDDKAG

[14] = tested on: T8, peptide construct comprising the thrombin substrate GLVPRGSAG (SEQ ID NO:1)
T8 sequence: CAGLVPRGSAG

[15] = tested on: peptides containing thrombin cleavage sites (whole yeast peptide construct set from S. cerevisiae genomic DNA)

Substance: ABL1 tyrosine kinase
- phosphorylation, capture on anti-phosphotyrosine beads and sequencing counts [1]: None of the 1557 negative peptides were detected in the assays
- relative qPCR signal {2^[Ct(untreated)-Ct(test)]} after biotin labelling of phosphotyrosine and capture on streptavidin beads [2]: The qPCR signal was ~2-fold higher for the kinase-treated preparation, relative to the untreated preparation
- relative qPCR signal {2^[Ct(untreated)-Ct(test)]} after capture on anti-phosphotyrosine antibody beads [2]: The qPCR signal was significantly higher (~120-fold) for the kinase-treated preparation, relative to the untreated preparation

Substance: NS3 (hepacivirin) protease of hepatitis C virus
- protease cleavage, release from beads and sequencing counts (SEQ ID NO 22): map of peptide cleavage sites identified by assaying overlapping 8-mer peptides of HCV polyprotein (SEQ ID NOS:22, 23, 24, 25, 8, 26, 9, 27, 10, 28, 12, and 29
- protease cleavage, release from beads and sequencing counts (SEQ ID NO 23): map of peptide cleavage sites identified by assaying overlapping 8-mer peptides of HCV polyprotein (SEQ ID NOS:22, 23, 24, 25, 8, 26, 9, 27, 10, 28, 12, and 29
- protease cleavage, release from beads and sequencing counts (SEQ ID NO 24): map of peptide cleavage sites identified by assaying overlapping 8-mer peptides of HCV polyprotein (SEQ ID NOS:22, 23, 24, 25, 8, 26, 9, 27, 10, 28, 12, and 29
- protease cleavage, release from beads and sequencing counts (SEQ ID NO 25): map of peptide cleavage sites identified by assaying overlapping 8-mer peptides of HCV polyprotein (SEQ ID NOS:22, 23, 24, 25, 8, 26, 9, 27, 10, 28, 12, and 29
- protease cleavage, release from beads and sequencing counts (SEQ ID NO 26): map of peptide cleavage sites identified by assaying overlapping 8-mer peptides of HCV polyprotein (SEQ ID NOS:22, 23, 24, 25, 8, 26, 9, 27, 10, 28, 12, and 29
- protease cleavage, release from beads and sequencing counts (SEQ ID NO 27): map of peptide cleavage sites identified by assaying overlapping 8-mer peptides of HCV polyprotein (SEQ ID NOS:22, 23, 24, 25, 8, 26, 9, 27, 10, 28, 12, and 29
- protease cleavage, release from beads and sequencing counts (SEQ ID NO 28): map of peptide cleavage sites identified by assaying overlapping 8-mer peptides of HCV polyprotein (SEQ ID NOS:22, 23, 24, 25, 8, 26, 9, 27, 10, 28, 12, and 29
- protease cleavage, release from beads and sequencing counts (SEQ ID NO 29): map of peptide cleavage sites identified by assaying overlapping 8-mer peptides of HCV polyprotein (SEQ ID NOS:22, 23, 24, 25, 8, 26, 9, 27, 10, 28, 12, and 29
- protease cleavage, release from beads and sequencing counts [3]: Peptide EAIYQCCD (SEQ ID NO:12) represents a peptide substrate that does not fit the known HCV NS3 protease consensus
- protease cleavage, release from beads and sequencing counts [4]: the undetected site, EVVTSTWV (SEQ ID NO:11), is known to be cleaved only in cis
- protease cleavage, release from beads and sequencing counts [5]: cleavage of 3 of the 4 known sites published in the MEROPS database was detected
- protease cleavage, release from beads and sequencing counts [6]: cleavage of 3 of the 4 known sites published in the MEROPS database was detected
- protease cleavage, release from beads and sequencing counts [7]: cleavage of 3 of the 4 known sites published in the MEROPS database was detected

Substance: SRC tyrosine kinase
- phosphorylation, capture on anti-phosphotyrosine beads and sequencing counts [1]: None of the 1557 negative peptides were detected in the assays
- phosphorylation, capture on anti-phosphotyrosine beads and sequencing counts [8]: Two of the three Src phosphorylation sites (GLAYATEAVY (SEQ ID NO: 16) and GHYPAEDSTY (SEQ ID NO: 17)) were detected
- phosphorylation, capture on anti-phosphotyrosine beads and sequencing counts [9]: Two of the three Src phosphorylation sites (GLAYATEAVY (SEQ ID NO: 16) and GHYPAEDSTY (SEQ ID NO: 17)) were detected
- phosphorylation, capture on anti-phosphotyrosine beads and sequencing counts [10]: Two more sites were identified (GTEPEPVYSM (SEQ ID NO: 18) and VYSMEAADYR (SEQ ID NO: 19))
- phosphorylation, capture on anti-phosphotyrosine beads and sequencing counts [11]: the third known site that was not detected (QVSSAYQKTV (SEQ ID NO: 20))
- phosphorylation, capture on anti-phosphotyrosine beads and sequencing counts [12]: Two more sites were identified (GTEPEPVYSM (SEQ ID NO: 18) and VYSMEAADYR (SEQ ID NO: 19))

Substance: enterokinase
- protease cleavage, PAGE of reaction products [13]: When treated with enterokinase, the peptide construct comprising the enterokinase substrate was cleaved
- protease cleavage, PAGE of reaction products [14]: neither the control nor the peptide construct comprising the thrombin substrate were cleaved

Substance: thrombin
- protease cleavage, PAGE of reaction products [13]: neither the control nor the peptide construct comprising the enterokinase substrate was cleaved
- protease cleavage, PAGE of reaction products [14]: then treated with thrombin, the peptide construct comprising the thrombin substrate was cleaved
- protease cleavage, sequence analysis of released constructs [15]: Sequence analysis demonstrated a significant enrichment of peptides containing thrombin cleavage sites

Source: US20140051589
